This is an account of results in article doi:10.1101/2019.12.17.868638.

For this assay, the target named is Rl-SRDI565 sulfoquinovosidase, K375A/K376A variant (RlSQase*) (Rhizobium leguminosarum bv. trifolii SRDI565). As to the kind of experiment: SEC-MALS.

By stoichiometry N is commonly meant the number of molecules, sites or subunits per partner or assembly.

Take “Rl-SRDI565 sulfoquinovosidase, K375A/K376A variant (RlSQase*) (enzyme)”: the stoichiometry N came out at 2.
